Assays:
HLA-B*44:02 = assay: IEDB peptide-MHC binding, purified MHC/competitive/radioactivity; filed as Kd, often an IC50 or EC50 that approximates it; ≥ and ≤ were set here for values at or beyond the usual limits of such assays
HLA-B*40:02 = assay: as above
HLA-B*18:01 = assay: as above
HLA-B*45:01 = assay: as above
HLA-B*40:01 = assay: as above
HLA-B*44:03 = assay: as above
HLA-B*57:01 = assay: IEDB peptide-MHC binding, purified MHC/direct/fluorescence; filed as Kd, often an IC50 or EC50 that approximates it; ≥ and ≤ were set here for values at or beyond the usual limits of such assays; settings: source organism: Mammarenavirus lassaense
HLA-B*15:17 = assay: as above; settings: source organism: Mammarenavirus lassaense
HLA-B*58:01 = assay: as above; settings: source organism: Mammarenavirus lassaense
HLA-B*51:01 = assay: IEDB peptide-MHC binding, purified MHC/competitive/fluorescence; filed as Kd, often an IC50 or EC50 that approximates it; ≥ and ≤ were set here for values at or beyond the usual limits of such assays; settings: source organism: Salmonella enterica subsp. enterica serovar Typhi
[1] = source organism: Mammarenavirus brazilense
[2] = source organism: Mammarenavirus choriomeningitidis
[3] = source organism: SARS coronavirus Tor2

IDPTLTTWI showed a Kd (HLA-B*44:02; [1]) of 3580 nM, a Kd (HLA-B*40:02; [1]) of no less than 10000 nM and a Kd (HLA-B*18:01; [1]) of no less than 42000 nM. The Kd (HLA-B*45:01; [1]) was 7230 nM, the Kd (HLA-B*40:01; [1]) was no less than 53300 nM and the Kd (HLA-B*44:03; [1]) was 1370 nM.
IETALRTLI gave a Kd (HLA-B*44:02; [2]) of 2780 nM, a Kd (HLA-B*40:02; [2]) of 154 nM and a Kd (HLA-B*18:01; [2]) of 3450 nM. It also gave a Kd (HLA-B*45:01; [2]) of no less than 54000 nM, a Kd (HLA-B*40:01; [2]) of 1860 nM and a Kd (HLA-B*44:03; [2]) of 2200 nM.
KEGFFTYLCG showed a Kd (HLA-B*44:02; [3]) of 2620 nM, a Kd (HLA-B*40:02; [3]) of 3750 nM and a Kd (HLA-B*18:01; [3]) of no less than 70500 nM. For the same sequence, the Kd (HLA-B*45:01; [3]) was 2890 nM, the Kd (HLA-B*40:01; [3]) was 1640 nM and the Kd (HLA-B*44:03; [3]) was 369 nM.
KENDSKEGFF showed a Kd (HLA-B*44:02; [3]) of 39.8 nM, a Kd (HLA-B*40:02; [3]) of 366 nM and a Kd (HLA-B*18:01; [3]) of 7490 nM. For the same sequence, the Kd (HLA-B*45:01; [3]) was 24.4 nM, the Kd (HLA-B*40:01; [3]) was 2690 nM and the Kd (HLA-B*44:03; [3]) was 30 nM.
KSFLWTQSL was tested, and the Kd (HLA-B*57:01) was 29 nM, the Kd (HLA-B*15:17) was no more than 1 nM and the Kd (HLA-B*58:01) was 42 nM.
For LESAQPGLL, the Kd (HLA-B*44:02; [1]) was 2950 nM, the Kd (HLA-B*40:02; [1]) was 431 nM and the Kd (HLA-B*18:01; [1]) was no less than 10000 nM. The Kd (HLA-B*45:01; [1]) was 13500 nM, the Kd (HLA-B*40:01; [1]) was 147 nM and the Kd (HLA-B*44:03; [1]) was 16800 nM.
Work on LEWLAEVVKL yielded a Kd (HLA-B*44:02; [3]) of 9310 nM, a Kd (HLA-B*40:02; [3]) of no less than 20100 nM and a Kd (HLA-B*18:01; [3]) of 1240 nM. The Kd (HLA-B*45:01; [3]) was 9160 nM, the Kd (HLA-B*40:01; [3]) was 104 nM and the Kd (HLA-B*44:03; [3]) was 7240 nM.
Work on NPLWPFETV yielded a Kd (HLA-B*51:01) of 229 nM.
